From patent publication EP2322204A1

Molecular target: LRP1 receptor on human astrocytoma 1321N1 cells (human) (UniProt Q07954)
Assay: cell-based or functional assay

UniProt Q07954, sequence (Q07954 20-4544): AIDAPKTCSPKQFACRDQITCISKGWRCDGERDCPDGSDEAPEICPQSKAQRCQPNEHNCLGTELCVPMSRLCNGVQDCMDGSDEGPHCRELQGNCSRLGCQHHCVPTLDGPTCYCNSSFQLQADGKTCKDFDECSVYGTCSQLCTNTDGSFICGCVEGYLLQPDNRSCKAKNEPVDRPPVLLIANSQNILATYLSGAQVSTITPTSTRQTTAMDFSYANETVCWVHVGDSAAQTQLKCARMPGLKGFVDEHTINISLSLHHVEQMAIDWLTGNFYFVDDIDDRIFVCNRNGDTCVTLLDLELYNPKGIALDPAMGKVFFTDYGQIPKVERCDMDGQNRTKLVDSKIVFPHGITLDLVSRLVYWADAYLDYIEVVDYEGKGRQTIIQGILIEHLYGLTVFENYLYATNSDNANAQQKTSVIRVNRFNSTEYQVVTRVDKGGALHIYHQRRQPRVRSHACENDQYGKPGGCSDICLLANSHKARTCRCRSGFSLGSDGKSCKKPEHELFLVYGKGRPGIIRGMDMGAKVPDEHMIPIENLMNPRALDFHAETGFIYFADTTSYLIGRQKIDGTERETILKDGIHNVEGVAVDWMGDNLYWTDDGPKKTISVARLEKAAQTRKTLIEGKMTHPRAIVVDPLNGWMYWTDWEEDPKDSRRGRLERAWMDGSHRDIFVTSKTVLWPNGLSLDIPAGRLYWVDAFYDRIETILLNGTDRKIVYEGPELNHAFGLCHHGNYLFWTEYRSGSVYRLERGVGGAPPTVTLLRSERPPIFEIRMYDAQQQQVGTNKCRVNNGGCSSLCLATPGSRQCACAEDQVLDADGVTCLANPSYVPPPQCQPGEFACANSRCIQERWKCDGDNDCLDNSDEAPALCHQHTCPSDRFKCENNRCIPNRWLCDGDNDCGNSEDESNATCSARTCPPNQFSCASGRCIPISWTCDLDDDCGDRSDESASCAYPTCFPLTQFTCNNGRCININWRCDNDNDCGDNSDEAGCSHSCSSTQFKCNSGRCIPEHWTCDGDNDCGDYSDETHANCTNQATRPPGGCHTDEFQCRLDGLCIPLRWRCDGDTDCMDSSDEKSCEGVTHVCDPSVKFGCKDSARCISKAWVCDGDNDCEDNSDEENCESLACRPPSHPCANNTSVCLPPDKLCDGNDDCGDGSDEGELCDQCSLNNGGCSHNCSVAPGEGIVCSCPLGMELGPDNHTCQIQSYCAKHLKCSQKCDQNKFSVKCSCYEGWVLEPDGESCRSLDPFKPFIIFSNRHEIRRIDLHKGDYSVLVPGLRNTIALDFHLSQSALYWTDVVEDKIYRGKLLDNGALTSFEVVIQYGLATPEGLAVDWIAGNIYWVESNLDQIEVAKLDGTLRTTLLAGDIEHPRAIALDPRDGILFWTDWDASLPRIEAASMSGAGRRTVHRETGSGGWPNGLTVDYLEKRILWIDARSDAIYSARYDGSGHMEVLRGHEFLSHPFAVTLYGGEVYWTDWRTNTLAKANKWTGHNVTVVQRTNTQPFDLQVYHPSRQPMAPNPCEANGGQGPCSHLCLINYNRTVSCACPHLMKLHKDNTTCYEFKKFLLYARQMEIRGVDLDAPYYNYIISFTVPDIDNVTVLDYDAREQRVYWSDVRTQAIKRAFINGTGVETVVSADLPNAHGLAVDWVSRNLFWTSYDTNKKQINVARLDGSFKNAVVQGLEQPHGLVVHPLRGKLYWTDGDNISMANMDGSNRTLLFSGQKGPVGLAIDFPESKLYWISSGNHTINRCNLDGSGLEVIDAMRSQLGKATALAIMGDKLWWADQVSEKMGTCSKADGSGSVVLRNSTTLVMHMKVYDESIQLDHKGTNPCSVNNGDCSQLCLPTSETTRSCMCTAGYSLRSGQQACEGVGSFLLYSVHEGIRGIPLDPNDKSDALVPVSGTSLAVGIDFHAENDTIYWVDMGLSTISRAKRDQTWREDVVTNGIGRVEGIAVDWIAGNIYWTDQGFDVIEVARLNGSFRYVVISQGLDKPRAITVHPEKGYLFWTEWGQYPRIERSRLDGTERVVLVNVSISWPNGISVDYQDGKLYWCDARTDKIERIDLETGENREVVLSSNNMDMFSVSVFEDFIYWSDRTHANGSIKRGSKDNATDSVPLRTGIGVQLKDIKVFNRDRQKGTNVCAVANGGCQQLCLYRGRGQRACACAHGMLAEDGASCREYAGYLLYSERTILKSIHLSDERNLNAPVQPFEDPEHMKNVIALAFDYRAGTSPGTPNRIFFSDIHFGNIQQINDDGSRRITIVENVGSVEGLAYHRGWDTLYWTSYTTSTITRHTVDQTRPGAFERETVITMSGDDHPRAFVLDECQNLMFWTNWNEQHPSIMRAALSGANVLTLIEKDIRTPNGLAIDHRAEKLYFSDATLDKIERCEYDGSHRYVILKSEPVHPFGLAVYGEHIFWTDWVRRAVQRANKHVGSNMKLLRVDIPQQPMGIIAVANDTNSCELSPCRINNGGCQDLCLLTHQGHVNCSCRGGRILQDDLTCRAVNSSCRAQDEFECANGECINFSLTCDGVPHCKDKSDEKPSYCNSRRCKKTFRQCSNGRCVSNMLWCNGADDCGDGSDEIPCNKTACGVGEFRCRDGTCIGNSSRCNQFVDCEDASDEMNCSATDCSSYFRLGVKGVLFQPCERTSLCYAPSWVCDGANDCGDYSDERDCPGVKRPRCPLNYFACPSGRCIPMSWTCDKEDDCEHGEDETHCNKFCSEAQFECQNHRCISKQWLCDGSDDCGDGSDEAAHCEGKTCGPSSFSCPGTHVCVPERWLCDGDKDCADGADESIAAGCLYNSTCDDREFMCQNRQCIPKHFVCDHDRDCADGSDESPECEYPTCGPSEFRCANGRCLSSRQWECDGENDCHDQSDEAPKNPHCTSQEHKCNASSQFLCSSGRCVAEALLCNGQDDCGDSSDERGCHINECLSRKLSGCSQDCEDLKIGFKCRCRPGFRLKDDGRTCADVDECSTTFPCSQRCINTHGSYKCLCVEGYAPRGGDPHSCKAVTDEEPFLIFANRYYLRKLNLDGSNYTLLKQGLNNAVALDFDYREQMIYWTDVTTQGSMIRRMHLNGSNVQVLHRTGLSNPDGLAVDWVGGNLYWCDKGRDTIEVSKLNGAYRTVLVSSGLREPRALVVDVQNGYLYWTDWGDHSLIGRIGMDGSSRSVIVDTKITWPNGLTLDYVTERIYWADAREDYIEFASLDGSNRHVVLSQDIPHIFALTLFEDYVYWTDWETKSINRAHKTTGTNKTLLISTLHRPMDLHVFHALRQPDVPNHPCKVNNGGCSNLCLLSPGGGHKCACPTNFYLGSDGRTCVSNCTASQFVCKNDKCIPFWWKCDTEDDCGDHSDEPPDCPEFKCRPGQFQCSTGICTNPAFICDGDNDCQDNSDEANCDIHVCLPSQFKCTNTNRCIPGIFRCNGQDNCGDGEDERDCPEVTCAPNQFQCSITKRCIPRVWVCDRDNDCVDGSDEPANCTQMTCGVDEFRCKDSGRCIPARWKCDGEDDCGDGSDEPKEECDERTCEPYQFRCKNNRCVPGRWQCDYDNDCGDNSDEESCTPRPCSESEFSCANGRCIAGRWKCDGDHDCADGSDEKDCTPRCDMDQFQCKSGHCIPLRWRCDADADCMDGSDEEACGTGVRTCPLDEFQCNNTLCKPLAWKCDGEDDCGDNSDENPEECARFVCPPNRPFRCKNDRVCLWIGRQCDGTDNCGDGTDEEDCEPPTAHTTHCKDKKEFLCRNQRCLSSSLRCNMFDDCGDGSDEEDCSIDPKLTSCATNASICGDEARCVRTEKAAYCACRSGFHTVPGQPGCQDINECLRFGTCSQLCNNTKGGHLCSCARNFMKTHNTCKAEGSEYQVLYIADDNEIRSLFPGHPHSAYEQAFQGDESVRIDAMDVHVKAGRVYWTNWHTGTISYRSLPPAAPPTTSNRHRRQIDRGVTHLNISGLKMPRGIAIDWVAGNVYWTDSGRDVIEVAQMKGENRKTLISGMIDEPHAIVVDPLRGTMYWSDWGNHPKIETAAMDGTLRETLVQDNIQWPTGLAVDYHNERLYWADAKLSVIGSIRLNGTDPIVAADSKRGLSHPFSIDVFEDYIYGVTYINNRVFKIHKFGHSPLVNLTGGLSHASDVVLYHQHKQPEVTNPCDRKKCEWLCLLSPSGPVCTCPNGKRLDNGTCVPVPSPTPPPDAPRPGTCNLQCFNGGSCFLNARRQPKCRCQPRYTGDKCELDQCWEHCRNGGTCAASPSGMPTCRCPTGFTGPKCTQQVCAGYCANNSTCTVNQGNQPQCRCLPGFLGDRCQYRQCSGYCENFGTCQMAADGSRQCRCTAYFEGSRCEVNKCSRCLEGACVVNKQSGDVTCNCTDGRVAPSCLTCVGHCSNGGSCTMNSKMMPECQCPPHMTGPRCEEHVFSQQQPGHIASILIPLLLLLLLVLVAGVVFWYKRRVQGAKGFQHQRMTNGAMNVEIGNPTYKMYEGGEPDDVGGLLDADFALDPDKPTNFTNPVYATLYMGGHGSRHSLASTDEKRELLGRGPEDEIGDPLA

“methylamine-transformed A2M* (activated alpha-2-macroglobulin) (from UniProt P01023 24-1474) (ligand)” was tested, and the decrease in colony formation in soft agar (anchorage-independent growth), 1321N1 cells was > 50%.
